Results on 1 molecule are retold here after patent KR20240034954A (dated 2024).

For experiment [1], the target named is T1, 서열번호 2의 아미노산 서열을 포함하는 SIRPα 변이체 (Homo sapiens (Human), UniProt P78324 31-149).
T1 construct: Engineered SIRPα variant; also called vSIRPα; vSIRPα antigen
T1 chain: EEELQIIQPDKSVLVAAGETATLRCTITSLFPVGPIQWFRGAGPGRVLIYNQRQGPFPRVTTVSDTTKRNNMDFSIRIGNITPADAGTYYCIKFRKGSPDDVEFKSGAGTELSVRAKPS
The experiment is described as follows: indirect ELISA, vSIRPα (SEQ ID NO 2) coated at 1.0 ug/ml, anti-mouse IgG Fcγ-peroxidase secondary. In general terms: An ELISA detects its analyte on a solid surface through an enzyme-linked reagent.

For a further experiment, the target named is T2, 야생형의 SIRPα (Homo sapiens (Human), UniProt P78324 31-149, limits assumed).
T2 construct: also called wtSIRPα; wild-type SIRPα
The experiment is described as follows: western blot. On the technique in general: Immunoblotting shows a protein as a band on a membrane.

B1: 항-vSIRPα 단일클론 항체 (SIRPα 변이체 특이적인 단일클론 항체) (antibody, V domains shown)
VH: EVQLQQSGPELVKPGASVKISCKASGYSFTGYYMHWVKQSHVKSLEWIGRINPYNGATNYNQNFKDKASLTLDKSSSTAYVELHSLTSEDSAVYYCTRNDGYYWYFDVWGAGTTVTVSS
VL: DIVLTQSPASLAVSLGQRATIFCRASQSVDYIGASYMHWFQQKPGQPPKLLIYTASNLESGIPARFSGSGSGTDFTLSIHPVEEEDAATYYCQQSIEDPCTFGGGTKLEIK
notes: Two clones were selected; also called 제작된 2종 항체; 개발한 항체 2종
Take B1: the binding result in experiment [1] is recorded as “binds”; with 야생형의 SIRPα, “no binding”.
